Experimental data: article PMC5874916 (2018)

How the values were obtained:
[1] = molecular target: T1, 6xHis-tagged WT RTp51/p66 heterodimer purified from E. coli (HIV-1, UniProt P04585 588-1027); experiment: BLI
[2] = molecular target: T1, 6xHis-tagged WT RTp51/p66 heterodimer …; experiment: BLI; remark: listed apart in the source

B1: purified recombinant eEF1A1 (OriGene), biotinylated (natural protein)
chain: MGKEKTHINIVVIGHVDSGKSTTTGHLIYKCGGIDKRTIEKFEKEAAEMGKGSFKYAWVLDKLKAERERGITIDISLWKFETSKYYVTIIDAPGHRDFIKNMITGTSQADCAVLIVAAGVGEFEAGISKNGQTREHALLAYTLGVKQLIVGVNKMDSTEPPYSQKRYEEIVKEVSTYIKKIGYNPDTVAFVPISGWNGDNMLEPSANMPWFKGWKVTRKDGNASGTTLLEALDCILPPTRPTDKPLRLPLQDVYKIGGIGTVPVGRVETGVLKPGMVVTFAPVNVTTEVKSVEMHHEALSEALPGDNVGFNVKNVSVKDVRRGNVAGDSKNDPPMEAAGFTAQVIILNHPGQISAGYAPVLDCHTAHIACKFAELKEKIDRRSGKKLEDGPKFLKSGDAAIVDMVPGKPMCVESFSDYPPLGRFAVRDMRQTVAVGVIKAVDKKAAGAGKVTKSAQKAQKAK
modifications: biotin (EZ-Link-sulfo-NHS-biotin)
For B1, the Kd [1] was 3.48 nM and the koff [2] was 0.000475 s⁻¹.
